Assay results from patent publication US20150210756A1 (NEW YORK UNIVERSITY, published 2015).

T1: LukS-PV (S. aureus)
T1 construct: also called Panton-Valentine leukocidin S; LukS-PV subunit of the PVL leukotoxin
T1 chain: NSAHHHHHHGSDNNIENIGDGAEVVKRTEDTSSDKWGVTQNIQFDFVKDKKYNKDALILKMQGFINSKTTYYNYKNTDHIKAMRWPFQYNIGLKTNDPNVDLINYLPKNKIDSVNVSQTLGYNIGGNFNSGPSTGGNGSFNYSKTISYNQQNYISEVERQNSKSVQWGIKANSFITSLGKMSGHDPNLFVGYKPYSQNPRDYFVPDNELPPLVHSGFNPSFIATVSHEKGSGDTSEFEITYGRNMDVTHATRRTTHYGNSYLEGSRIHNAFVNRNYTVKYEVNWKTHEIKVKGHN


What was measured:
LukS-PV = target: T1, LukS-PV; test: ELISA on purified, recombinant LukS-PV
Protein A = target: T2, Protein A (Staphylococcus aureus, UniProt P38507 37-477); test: western blot of S. aureus lysates
T2 construct: also called S. aureus Protein A; SpA

human FcγRI = human FcγRI (human, UniProt P12314 16-288); test: AlphaScreen competition against biotinylated IgG1
Sequence of human FcγRI (P12314 16-288 limits assumed): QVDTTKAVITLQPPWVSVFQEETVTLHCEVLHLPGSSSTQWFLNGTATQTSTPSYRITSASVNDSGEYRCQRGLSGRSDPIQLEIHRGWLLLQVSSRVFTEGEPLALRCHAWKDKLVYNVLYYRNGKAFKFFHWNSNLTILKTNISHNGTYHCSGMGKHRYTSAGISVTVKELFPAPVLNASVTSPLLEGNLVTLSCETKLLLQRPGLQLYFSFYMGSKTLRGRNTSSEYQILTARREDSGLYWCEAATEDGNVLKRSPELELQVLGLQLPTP

human FcγRIIIa (V158) = human FcγRIIIa (V158) (human, UniProt P08637 17-208); test: AlphaScreen competition against biotinylated IgG1
Sequence of human FcγRIIIa (V158) (P08637 17-208 F176V limits assumed): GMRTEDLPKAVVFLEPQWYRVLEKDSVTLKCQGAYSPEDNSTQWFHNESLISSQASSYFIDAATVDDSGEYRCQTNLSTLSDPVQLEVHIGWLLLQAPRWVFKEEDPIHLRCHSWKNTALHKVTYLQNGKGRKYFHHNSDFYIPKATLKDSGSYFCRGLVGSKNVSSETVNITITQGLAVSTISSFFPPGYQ

[1] = target: T3, SdgB-glycosylated recombinant SdrC4 protein (S. aureus, UniProt O86487 51-910); test: ELISA on coated SdgB-glycosylated SdrC4
T3 construct: also called SdgB-glycosylated SdrC4 protein
T3 sequence (O86487 51-910, tags left off): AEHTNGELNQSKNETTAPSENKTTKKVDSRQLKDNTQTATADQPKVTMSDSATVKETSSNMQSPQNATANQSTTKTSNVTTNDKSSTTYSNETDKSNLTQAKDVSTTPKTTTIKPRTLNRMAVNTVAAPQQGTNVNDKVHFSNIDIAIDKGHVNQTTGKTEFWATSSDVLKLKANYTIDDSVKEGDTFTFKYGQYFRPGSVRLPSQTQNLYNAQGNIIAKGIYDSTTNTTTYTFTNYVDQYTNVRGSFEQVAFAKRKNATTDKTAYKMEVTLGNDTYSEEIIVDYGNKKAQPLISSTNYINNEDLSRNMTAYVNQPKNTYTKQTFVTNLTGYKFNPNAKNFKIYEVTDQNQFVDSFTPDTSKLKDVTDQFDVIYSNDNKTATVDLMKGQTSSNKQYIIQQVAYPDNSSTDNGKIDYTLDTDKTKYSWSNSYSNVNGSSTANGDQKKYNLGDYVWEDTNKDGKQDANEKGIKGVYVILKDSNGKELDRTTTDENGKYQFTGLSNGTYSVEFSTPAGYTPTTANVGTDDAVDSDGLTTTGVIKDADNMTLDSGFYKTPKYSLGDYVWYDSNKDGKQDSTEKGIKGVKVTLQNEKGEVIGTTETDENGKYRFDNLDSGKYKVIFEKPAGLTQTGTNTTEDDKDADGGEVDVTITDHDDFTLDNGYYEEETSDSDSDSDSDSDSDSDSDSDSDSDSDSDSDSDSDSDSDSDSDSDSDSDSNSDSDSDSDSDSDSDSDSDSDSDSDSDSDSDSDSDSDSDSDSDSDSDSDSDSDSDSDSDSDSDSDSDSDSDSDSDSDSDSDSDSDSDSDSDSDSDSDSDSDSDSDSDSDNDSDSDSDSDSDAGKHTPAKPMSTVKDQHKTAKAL

| Binder | binding result (LukS-PV) | binding result (Protein A) | binding result (human FcγRI) | binding result (human FcγRIIIa (V158)) | binding result [1] |
| --- | --- | --- | --- | --- | --- |
| Luk647 (designed binder) LPAPKNLVVSRVTEDSARLSWTAPDAAFDSFSIYYGEWDPTGEAIVLTVPGSERSYDLTGLKPGTEYWVLIVGVKGGSTSAPLSAIFTT | binds |  |  |  |  |
| Luk540 (designed binder) LPAPKNLVVSRVTEDSARLSWTAPDAAFDSFHIEYPEDTEQGEAIVLTVPGSERSYDLTGLKPGTEYNVHITGVKGGSKSAPLSAIFTT | binds |  |  |  |  |
| mAb 5133 A6 (Construct 3, CR5133 A6) (antibody) heavy: not shown light: EIVLTQSPATLSLSPGERATLSCRASQSVSGYLGWYQQKPGQAPRLLIYGASSRATGIPDRFSGSGSGTDFTLTISRLEPEDFAVYYCQQYGSSPLTFGGGTKLEIKRTVAAPSVFIFPPSDEQLKSGTASVVCLLNNFYPREAKVQWKVDNALQSGNSQESVTEQDSKDSTYSLSSTLTLSKADYEKHKVYACEVTHQGLSSPVTKSFNRGEC |  | no binding (tested: 2 µg/mL) | binds | binds |  |
| mAb 5133 PRASA A6 (Construct 4, CR5133 PRASA A6) (antibody, also called PRASA A6 parental mAb) heavy: EVQLVETGGGLVKPGGSLRLSCSASRFSFRDYYMTWIRQAPGKGPEWVSHISGSGSTIYYADSVRGRFTISRDNAKSSLYLQMDSLQADDTAVYYCARGGRATSYYWVHWGPGTLVTVSSASTKGPSVFPLAPSSKSTSGGTAALGCLVKDYFPEPVTVSWNSGALTSGVHTFPAVLQSSGLYSLSSVVTVPSSSLGTQTYICNVNHKPSNTKVDKKVEPKSCDKTHTCPPCPAPPVAGPDVFLFPPKPKDTLMISRTPEVTCVVVDVSHEDPEVKFNWYVDGVEVHNAKTKPREEQYNSTYRVVSVLTVLHQDWLNGKEYKCKVSNAALPAPIAKTISKAKGQPREPQVYTLPPSRDELTKNQVSLTCLVKGFYPSDIAVEWESNGQPENNYKTTPPVLDSDGSFFLYSKLTVDKSRWQQGNVFSCSVMHEALHNRFTQKSLSLSPGK light: EIVLTQSPATLSLSPGERATLSCRASQSVSGYLGWYQQKPGQAPRLLIYGASSRATGIPDRFSGSGSGTDFTLTISRLEPEDFAVYYCQQYGSSPLTFGGGTKLEIKRTVAAPSVFIFPPSDEQLKSGTASVVCLLNNFYPREAKVQWKVDNALQSGNSQESVTEQDSKDSTYSLSSTLTLSKADYEKHKVYACEVTHQGLSSPVTKSFNRGEC |  | no binding (tested: 2 µg/mL) | no binding | binds |  |
| pagibaximab (antibody, V domains shown, also called anti-LTA mAb) VH: EVMLVESGGGLVQPKGSLKLSCAASGFTFNNYAMNWVRQAPGKGLEWVARIRSKSNNYATFYADSVKDRFTISRDDSQSMLYLQMNNLKTEDTAMYYCVRRGASGIDYAMDYWGQGTSLTVSS VL: DIVLSQSPAILSASPGEKVTMTCRASSSVNYMHWYQQKPGSSPKPWISATSNLASGVPARFSGSGSGTSYSLTISRVEAEDAATYYCQQWSSNPPTFGGGTMLEIKR |  |  |  |  | no binding (tested: starting at 10 µg/mL) |
